Experimental data as given in the DeepSol protein solubility set.

Assay: soluble on expression in E. coli; label from the status in PepcDB or PDB records

| Sequence | soluble on expression in E. coli |
| --- | --- |
| LDARFSDAESNSGLTKATTDTLEAYLDVNEDGTWEVDNFLKKSVDKQHGWMQIIDSEGNTDYSYGVPKDVPGTYTKKELLSIYKTKKLHNYKLNYWAINIEDKSYLLLSGWKSKSEQLLTSVEKREQKIDSLAHYKSSTIDYIKRKKGAIYLLDSNGKILDSINSTKSERKTMNQLELLKYSSKPWNYKREISVKILNKDRWMVATVPNPVYVTDQEFNKSFLK | not soluble |
| MGSDKIHHHHHHMAVSSLAGLGLRREMLAEFSQSVPAQIDFFEVAPENWMALGGKYGKQFRALTERHAFFCHGLSLSIGSSAPLDIDFIKGIKAFLDLHGIAVYSEHLSYCSGSGHLYDLMPMPFTPEAVRHIAGRVKQVEDIIERPLILENISFYAAPGAQMTELEFVLAVLEEADCQLLLDVNNIYVNSINHNYDAAAYLAAMPTERIRYLHVAGHYVEAPDLIVDTHGADIVDPVWQLLCDCYALHGPLPTLLERDFNIPPIGELLQEIDRIRDYQAAAIRTSRRAG | not soluble |
| MAHHHHHHMSDQINVKHKIGDTCRKLYSYFKTVNNTSTFIQNGTLTPSEFVDSGDFLVYKFKTWEWQEADKDRVVPYLPENKQFLITKNVPCKQRIKDLNNIVHDLIMIGYSQVMKKITIPQIYMNIYLIVNTQLMTKMYKMYKITSCYSKNMLHDSNSFKNNFIIIIKNFTCLNIITYDKYYQTPRIWLFGYNENGDPLKSEEIFEDILSDYSYKTVTVKIKIIFMILIRVLVHAEAILNVVNNWISEEKEPRIKKRINVYMYVFCFRHDLYLLFLLKFISGVIPTIEYDFTTDIEIPRDSNAGL | not soluble |
| NKLAQKYDHQREQELREWIEGVTGRRIGNNFMDGLKDGIILCEFINKLQPGSVKKINESTQNWHQLENIGNFIKAITKYGVKPHDIFEANDLFENTNHTQVQSTLLALASMAKTKGNKVNVGV | soluble |
| MRSFIISSALLVILVQCGYPVAENSYPTTPSYPTPPPSYPTPKKYPVAPTYPSPPAYAQKPSYSAPPPPAPSVYSSSSFSDNEVASDSEYTTASPNSEYRKRAKARTAHNRKFQRRALTPIRRFQQKKQ | not soluble |
| NIYLDKRITKQATQFLEAARAIDSREHLISGYRSVAYQEKLFNSYVTQEMTSNPNLTRGQAEKLVKTYSQPAGASEHQTGLAMDMSTVDSLNESDPRVVSQLKKIAPQYGFVLRFPDGKTAETGVGYEDWHYRYVGV | not soluble |
| MPDNLSAIFGTILDYAEEVAAGTSNENDERPPRTSLTKKQQKAVSILRNFSTNDQKQEISFQELSQNVLDDWDISNIKSSSVQQLVELLNLPRVQGVLWAAQEISAGRFAPQLPDVPFEVDEDDGVAVKIVRIVRRGEPLGATIKCERGKVYVARIMANGVADRSGCIQEGDRVLEVNGITVADKEPREIVKLLDKCDNGIITFKLIPAEINQKLKQKKSSHRYARALFDYDPWQDKRHPCPEAAISFRGGDILEILDEKDQYWWQTRKIGFGALARRKESHDDENRDDSKKVGLVPSEWLQCQSEIPENGIDTSDDFQSFLENHKGRFYESVFRWRNKKKRRRVVVLLGAPGVGRNEIRRQFFKVFADRFTNAIPHTSRPQRPNESDGVNYYFTSRSEMERMIERKEMLEYGEFRDNLYGTALKSVRKASEKGTVLLTPHPLAIENIRTWEFAPIVIFVQPPEFGEFKHTREVYRSQTTRSHSAASSSNISQNTAATSAARAFSDVEIRQIIDNSAQMEQKYRGYCDAIIRNVDLDTTMNELTGLIYQLESKATWMPMKWLDDIGE | not soluble |
| MKKKTTLSEEDQALFRQLMAGTRKIKQDTIVHRPQRKKISEVPVKRLIQEQADASHYFSDEFQPLLNTEGPVKYVRPDVSHFEAKKLRRGDYSPELFLDLHGLTQLQAKQELGALIAACRREHVFCACVMHGHGKHILKQQTPLWLAQHPHVMAFHQAPKEYGGDAALLVLIEVEEWLPPELP | not soluble |
| MGSDKIHHHHHHMAKDIIKLGDVATYINGYAFKPEDRGEEGLQIIRIQDLTGNSYDLGFYNGKYPKKIEINDGDVLISWSASLGVYVWNGGKALLNQHIFKVKFDKVDIDKSYFVYAVRYKLNDMGKKTHGATMKHIVKRDFDATEIPYPPLKKQIEIAINLDKVLMVIKERKRELKLLDELIKARFVEMFGDCTNMISLSDLCLIITDGTHQSPKFQHEGIPFILVSNLSKNTVTYDTDKFISAETYKELYKRTPIEIGDILLSTVGSYGHPAVVVEDRKFLFQRHIAYLKPKSDILNSYYMHGALLSPGCQRQIEEKVKGIAQKTLNLSEIRKIRIPVPSLDLQKQYADFVHQVNKSKVAVQKALDETQILFDSLMQKYFG | not soluble |
| MSLQTYSSSKRFNINVSQTIGRRIYMEDMVMIKGELFDGIDYIGVFDGHNGKDAAKKAMETFHKLLDEYLIKSDHYLEHLNHICNEIQQLISFTTASGTTASVIIIREDDVIFCYIGDSPIYIKSNEQVKKISIDHNTSNEEEVKRIINCGGSVVDINGTKRVNSKIVLTRSLGDKSLHPPLTNEPTIISIPLNEIDSIIVASDGISSISCELLNELTNPTFGLEQQAVNIRNIAYEKNSPDNISVVVIQITQPIISEGHHHHHH | soluble |
| MLAKIIMKNFKSFKNETVIDFTRINYKFLENNVSNNGVLKGVAFYGANASGKSNVLWAIRFLLDELFGEEKNPVTFMKCLFSDEPEFSLQYFFVIESREIHYLIDFHTEKGIINEELYLDRKLLLQRMGSTAKSGITEKKVYTDLNNKVLFLRTVYFNTGFSGDDKDNNANNNILRQWFDYMQNSIYVNPFLHRGIAYGKQDVVLNKYLENEGVKEINRFFTKYNFEYTLDYLNERKVKDVTEIVNDDNIKLVFFNRKGVNVPIPYVLESHGNQNLLNILPCFLRVVQNSGMLLVDEFSGGLHNELERLLVNYFFLEHHHHHH | not soluble |
| AIASCGKPQETYSTSSILTREQFEIQHQEEDTIGEQVIFIDGVAYNSRGFRVCGAPNQRGGFCARFGQCPFHKDKVTTFKMSEETVSEFPRQLLTESCNLLQNNERKFKNAWKLDEHHRFLVALKKFGHGNWRQIADYVETRSASQCQSHAQKYYLRKRKLASNANLKRSIFDLIDEDTLSVEIGEEDTWNIIQKCPSKEAQGSVRSRSKTLQRMSTDSSVESYPIRELSTVDSELSTLQTYKQASFFIRIFRNGVFSHGVDLELPNSLASFFIKAAQLLDMSVATKAYTRSGFEISSLHEVCPGDILWISSGEEFIFPSPVQYIET | soluble |
| MRVEIIFLGCGGGRWATITQKKATGGFRIHTNELRMHVDPGPGAIVRLNELKISPWRTNALFISHCHPDHYTDGEIIVEAITQGMTKKRGVFLGSLSVVEGFGEYEYVVSKYHQSKLEEVRVLYPGDSAELYDTTIKATHTKHGDPFGIGFRLSTIYGDIGYTSDTEFIPQLIEDFDGVRILIANIVRKKNERIKGHLCSNDAIDLINSMNKKPELLIMNHMGVKMTNPQIEAEYISQNTGIEVIPARLGLKVELLNGKYKYQLIKLEHHHHHH | soluble |
| MGSDKIHHHHHHMSAQIIQLHTEAPAASVAQSPRKPTKAEKAIIADYVQDLIRRGFCKITDKSAKETRLFNRFDGEPQTLSYLRENFTEWLDDNGKECEFFCERYFIRRLKHIVGRVFKPNAPEFTQSPITGYRYANTYRRYEPTVDSADLPSCFHAYFERMFPAKHQRHIVLQWLAHIFRRPDQRPSWHLMLLSEPGTGKGFLVQNILQPLLHHTSVVASYSRITGKHSAVLVENLVILLDDCKSRSEATQTEMKSFLSEERALVERKYASAGMEDTYARMILASNEEIPLYVDPNERRWYIPDDVVHLVDLRETQANIIQPLADWLDEPGSLCKVYNWFMQYPLDGFNHKSVPESEGLTRLIDKSKGPYRQYIEDYVKDNKVFTYADLVESMTDAKLSKPSDRELGHVLREIGYEATQRRIDGVRLRLCHPVGMSLQDIRAAYSASPTDPNTPF | not soluble |
| AIASDKYIGDSHLEETGEEKQDSQEKEAVTPEKAEEQKLKAKYPNLGQKPGGSDFLMKRLQKGQKYFDSGDYNMAKAKIKNKQLPCAGPDKNLVTGDHIPTPQDLPQRKSSLVTSKLAGHVEDLHHV | soluble |
